Experiments:
Assay type in all cases: biochemical
(GR)10 [1] = experiment: Cleavage of (GR)10 by enzymes in solution (PBS with CaCl2 and MgCl2), LC/MS of GR repeats; conditions: (GR)10 50 μM
Description: • (GR)10 dipeptide (also (GR)8, (GR)6, (GR)4, (GR)2) were synthetized by solid-phase synthesis by CanPeptide; All peptides are uncapped and supplied lyophilized with TFA as counter ions. Purity was always above 95%. • Buffer: PBS buffer containing CaCl2 and MgCl2. • Stock solution of enzyme (e.g., 10 mg/mL) (prepared per manufacturer instructions) in PBS. Activators added as necessary. • Working solution of protein of the desired concentration (e.g., 100 μg/mL) prepared immediately before use by diluting the stock solution (e.g., 5 μL of 10 mg/mL stock solution) in PBS buffer (e.g., in 495 μL of PBS). Exemplary Procedure Using 50 μM Concentrations of (GR)10
25 μL of a 100 μM solution of (GR)10 was added to each well of a 96-well plate. 25 μL of a solution of enzyme (two times the desired final enzyme concentration) was added, and the plates were incubated at room temperature. At the specified time points (5 minutes, 10 minutes, 30 minutes, 60 minutes, and 180 minutes) 2.5 μL of a 10% TFA solution were added to stop the reaction. For the time 0 min well, the TFA was added to the well before addition of the enzyme. After last time point, all samples were further diluted with 150 μL of dilution solution. The quenched reaction mixtures were analyzed by LC/MS to determine the concentration of GR repeats of different lengths.
The chromatography and mass spectrometry conditions utilized are shown in Table 2 and Table 3, respectively.

(GR)10 [2] = experiment: (GR)10 digestion with immobilized proteases (NHS-activated agarose resin) in PBS; conditions: normalized
Description: (§1) Protease solutions were prepared at 2 mg/mL in sterile PBS with calcium, magnesium and 200 μL ([…]) were applied to 100 μL of pre-washed NHS-activated agarose resin in 0.8 mL centrifuge columns. Reactions were left 1.5 hour at room temperature with end-to-end mixing, after which resins were washed with 12 resin volumes of PBS. Unreacted sites were blocked with 500 μL of 1M ethanolamine for 15 minutes at room temperature and resins were further washed with 24 resin volumes. Resins were stored at 4 degrees in 500 μL of PBS containing 0.05% sodium azide as preservative.
110 μL of 50 μM (GR)10 dipeptide repeats prepared in PBS were added to each immobilized protease and incubated 5 minutes at room temperature with end-to-end mixing. Columns were spun down 1 minute at 1,000 Xg to recover digested GR dipeptides. Columns were washed with 110 μL of PBS to increase (GR)10 recovery. This procedure was repeated with 60 minutes digestion time. 100 μL of each samples were transferred to a new tube and 5 μL of 10% TFA followed by 300 μL of Dilution Solution were added. The reaction mixtures were analyzed by LC/MS to determine the concentration of GR repeats of different lengths.

(GR)10 [3] = experiment: (GR)10 digestion with immobilized proteases in human cerebrospinal fluid (CSF); conditions: immobilized enzyme
Description: as §1
200 μM of (GR)10 were diluted in human cerebrospinal fluid (CSF) and 400 μL were applied to each immobilized proteases. The reaction was incubated 5 minutes at room temperature with end-to-end mixing. Columns were spun down 1 minute at 1,000 Xg to recover digested GR dipeptides. Columns were washed with 12 resin volumes of PBS. The procedure was repeated with 60 minutes digestion time. 100 μL of each samples were transferred to a clean tube, flash-frozen and subsequently used for LC/MS quantification of GR repeats of different lengths. The remaining 300 μL of each samples were flash-frozen and used to assess neuron toxicity.
(GR)10 was digested with exemplary immobilized enzymes as described above in the subsection titled “(GR)10 digestion with immobilized proteases in CSF” of Example 3. Clostripain experiments were conducted with and without DTT activation (no DTT during digestion). The results obtained after 5 and 60 minutes of reaction time are presented in Table 25 and shown in FIG. 5 (commercial and in-house immobilized trypsin), FIG. 6 (immobilized elastase, FIG. 7A (immobilized clostripain without DTT) and FIG. 7 (immobilized clostripain with 2.5 mM DTT).

[4] = resin wash from 60 min reaction

B1: Proteinase K: protease that cleaves peptide bonds adjacent to the carboxylic group of aliphatic and aromatic amino acids (protein)
chain: AAQTNAPWGLARISSTSPGTSTYYYDESAGQGSCVYVIDTGIEASHPEFEGRAQMVKTYYYSSRDGNGHGTHCAGTVGSRTYGVAKKTQLFGVKVLDDNGSGQYSTIIAGMDFVASDKNNRNCPKGVVASLSLGGGYSSSVNSAAARLQSSGVMVAVAAGNNNADARNYSPASEPSVCTVGASDRYDRRSSFSNYGSVLDIFGPGTSILSTWIGGSTRSISGTSMATPHVAGLAAYLMTLGKTTAASACRYIADTANKGDLSNIPFGTVNLLAYNNYQA
(GR)10 [1]; enzyme 0.25 μg/mL, 0 min
  (GR)1 concentration: BLQ
  (GR)2 concentration: BLQ
  (GR)4 concentration: BLQ
  (GR)6 concentration: BLQ
  (GR)8 concentration: 0.3 µM
  (GR)10 concentration: 44.9 µM
(GR)10 [1]; enzyme 0.25 μg/mL, 2.5 min
  (GR)1 concentration: BLQ
  (GR)2 concentration: BLQ
  (GR)4 concentration: BLQ
  (GR)6 concentration: BLQ
  (GR)8 concentration: BLQ
  (GR)10 concentration: 55.8 µM
(GR)10 [1]; enzyme 0.25 μg/mL, 5 min
  (GR)1 concentration: 0.1 µM
  (GR)2 concentration: BLQ
  (GR)4 concentration: BLQ
  (GR)6 concentration: BLQ
  (GR)8 concentration: BLQ
  (GR)10 concentration: 54.4 µM
(GR)10 [1]; enzyme 0.25 μg/mL, 10 min
  (GR)1 concentration: 0.2 µM
  (GR)2 concentration: BLQ
  (GR)4 concentration: BLQ
  (GR)6 concentration: BLQ
  (GR)8 concentration: BLQ
  (GR)10 concentration: 50.3 µM
(GR)10 [1]; enzyme 0.25 μg/mL, 30 min
  (GR)1 concentration: 0.6 µM
  (GR)2 concentration: 0.2 µM
  (GR)4 concentration: 0.1 µM
  (GR)6 concentration: BLQ
  (GR)8 concentration: 0.3 µM
  (GR)10 concentration: 55.1 µM
(GR)10 [1]; enzyme 0.25 μg/mL, 60 min
  (GR)1 concentration: 1.0 µM
  (GR)2 concentration: 0.3 µM
  (GR)4 concentration: BLQ
  (GR)6 concentration: BLQ
  (GR)8 concentration: 0.3 µM
  (GR)10 concentration: 56.3 µM
(GR)10 [1]; enzyme 10 μg/mL, 0 min
  (GR)1 concentration: BLQ
  (GR)2 concentration: BLQ
  (GR)4 concentration: BLQ
  (GR)6 concentration: BLQ
  (GR)8 concentration: BLQ
  (GR)10 concentration: 49.4 µM
(GR)10 [1]; enzyme 10 μg/mL, 2.5 min
  (GR)1 concentration: 3.0 µM
  (GR)2 concentration: 0.5 µM
  (GR)4 concentration: 0.6 µM
  (GR)6 concentration: 0.5 µM
  (GR)8 concentration: 0.6 µM
  (GR)10 concentration: 55.4 µM
(GR)10 [1]; enzyme 10 μg/mL, 5 min
  (GR)1 concentration: 5.3 µM
  (GR)2 concentration: 0.8 µM
  (GR)4 concentration: 1.3 µM
  (GR)6 concentration: 0.8 µM
  (GR)8 concentration: 1.3 µM
  (GR)10 concentration: 48.8 µM
(GR)10 [1]; enzyme 10 μg/mL, 10 min
  (GR)1 concentration: 11.9 µM
  (GR)2 concentration: 1.4 µM
  (GR)4 concentration: 2.9 µM
  (GR)6 concentration: 2.2 µM
  (GR)8 concentration: 2.6 µM
  (GR)10 concentration: 44.1 µM
(GR)10 [1]; enzyme 10 μg/mL, 30 min
  (GR)1 concentration: 44.8 µM
  (GR)2 concentration: 5.7 µM
  (GR)4 concentration: 9.5 µM
  (GR)6 concentration: 5.2 µM
  (GR)8 concentration: 3.5 µM
  (GR)10 concentration: 16.6 µM
(GR)10 [1]; enzyme 10 μg/mL, 60 min
  (GR)1 concentration: 64.1 µM
  (GR)2 concentration: 10.1 µM
  (GR)4 concentration: 13.6 µM
  (GR)6 concentration: 6.6 µM
  (GR)8 concentration: 5.7 µM
  (GR)10 concentration: 10.6 µM

B2: Commercial Trypsin: commercial immobilized trypsin, presumably the ThermoFisher immobilized TPCK-trypsin of Example 2 (protein, UniProt P00760 24-246, looked up)
Serine protease 1: IVGGYTCGANTVPYQVSLNSGYHFCGGSLINSQWVVSAAHCYKSGIQVRLGEDNINVVEGNEQFISASKSIVHPSYNSNTLNNDIMLIKLKSAASLNSRVASISLPTSCASAGTQCLISGWGNTKSSGTSYPDVLKCLKAPILSDSSCKSAYPGQITSNMFCAGYLEGGKDSCQGDSGGPVVCSGKLQGIVSWGSGCAQKNKPGVYTKVCNYVSWIKQTIASN
modifications: TPCK-treated, immobilized on agarose resin
(GR)10 [2]; Immobilized - 5 min reaction
  (GR)1: 301.2 µM
  (GR)2: 0.0 µM
  (GR)3: 0.0 µM
  (GR)4: 0.0 µM
  (GR)5: 0.0 µM
  (GR)6: 0.0 µM
  (GR)8: 0.0 µM
  (GR)10: 0.0 µM
(GR)10 [2]; immobilized - 60 min reaction
  (GR)1: 308.6 µM
  (GR)2: 0.0 µM
  (GR)3: 0.0 µM
  (GR)4: 0.0 µM
  (GR)5: 0.0 µM
  (GR)6: 0.0 µM
  (GR)8: 0.0 µM
  (GR)10: 0.0 µM
(GR)10 [2]; resin wash from 5 min reaction
  (GR)1: 131.9 µM
  (GR)2: 0.0 µM
  (GR)3: 0.0 µM
  (GR)4: 0.0 µM
  (GR)5: 0.0 µM
  (GR)6: 0.0 µM
  (GR)8: 0.0 µM
  (GR)10: 0.0 µM
(GR)10 [2]; [4]
  (GR)1: 145.7 µM
  (GR)2: 0.0 µM
  (GR)3: 0.0 µM
  (GR)4: 0.0 µM
  (GR)5: 0.0 µM
  (GR)6: 0.0 µM
  (GR)8: 0.0 µM
  (GR)10: 0.0 µM
(GR)10 [3]; 5 min reaction
  (GR)1 (normalized uM): 1117.3 µM
  (GR)2 (normalized uM): 0.0 µM
  (GR)3 (normalized uM): 0.0 µM
  (GR)4 (normalized uM): 0.0 µM
  (GR)5 (normalized uM): 0.0 µM
  (GR)6 (normalized uM): 0.0 µM
  (GR)8 (normalized uM): 0.0 µM
  (GR)10 (normalized uM): 0.0 µM
(GR)10 [3]; 60 min reaction
  (GR)1 (normalized uM): 1197.4 µM
  (GR)2 (normalized uM): 0.0 µM
  (GR)3 (normalized uM): 0.0 µM
  (GR)4 (normalized uM): 0.0 µM
  (GR)5 (normalized uM): 0.0 µM
  (GR)6 (normalized uM): 0.0 µM
  (GR)8 (normalized uM): 0.0 µM
  (GR)10 (normalized uM): 0.0 µM
